PMC6444592, “Citrullination of HP1γ chromodomain affects association with chromatin” (Epigenetics & Chromatin, 2019)

Experiments:
[1] = target: T1, GST-HP1γR38/9A (full-length mouse HP1γ with alanine substitutions at amino acids 38 and 39) (mouse, UniProt P23198 1-183, R38/9A | R38/9A); assay: pull-down; H3K9me3 or unmethylated H3(1–16) peptides linked to Dynabeads MyOne streptavidin T1; eluted GST-HP1 in HBS-EP (300 mM NaCl, 10 mM HEPES KOH pH 7.4, 5 mM EDTA, 0.2% NP-40); SDS-PAGE, Coomassie-blue staining; settings: both partners purified
T1 construct: heterochromatin protein 1 gamma (HP1γ), mouse, full length, R38A and R39A (designed to mimic citrullination); also called double alanine mutant; source: E. coli, expressed as GST fusion protein (pGEX-2T), purified

[2] = target: T2, GST-HP1γR38/9K (full-length mouse HP1γ with R38 and R39 mutated to lysine) (mouse, UniProt P23198 1-183, R38/9K | R38/9K); assay: as above; settings: both partners purified
T2 construct: heterochromatin protein 1 gamma (HP1γ), mouse, full length, R38K and R39K (retains the positive charge); source: E. coli, expressed as GST fusion protein (pGEX-2T), purified
T2 sequence (P23198 other isoform, or with tags, fused parts or gaps R38/9K | R38/9K | R38/9K | R38/9K): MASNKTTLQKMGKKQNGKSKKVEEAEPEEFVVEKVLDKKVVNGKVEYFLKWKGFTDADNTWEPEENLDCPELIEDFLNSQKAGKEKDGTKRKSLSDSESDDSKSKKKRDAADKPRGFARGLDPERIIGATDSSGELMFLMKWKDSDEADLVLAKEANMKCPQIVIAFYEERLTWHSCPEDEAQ

T1 sequence (P23198 other isoform, or with tags, fused parts or gaps R38/9A | R38/9A | R38/9A | R38/9A): as the sequence (P23198 other isoform, or with tags, fused parts or gaps R38/9K | R38/9K | R38/9K | R38/9K) above, with K38A, K39A counted along it

binding result [1]: binds
binding result [2]: binds
B1: H3K9me3(1–16) peptide (peptide)
peptide: ARTKQTARKSTGGKAP
modifications: trimethyl-lysine at K9 (K(me3)); biotin at the C-terminus
notes: histone H3, residues 1-16; also called methylated H3K9me3(1–16) peptides; H3K9me3 peptides
